The supplement of paper PMC7877785
± gives the uncertainty stated by the source.

Experiment: self-splicing fitness, log relative to wild type (ln ratio); higher = more splicing; Tetrahymena group I intron in knt gene, E. coli kanamycin selection, DiMSum; sequences stand for … in CUCUCU…GGAGGGAAAAGUUAUCAGGCAUGCACCUGGUAGCUAGUCUUUAAACCAAUAGAUUGCAUCGGUUUAAAAGGCAAGACCGUCAAAUUGCGGGAAAGGGGUCAACAGCCGUUCAGUACCAAGUCUCAGGGGAAACUUUGAGAUGGCCUUGCAAAGGGUAUGGUAAUAAGCUGACGGACAUGGUCCUAACCACGCAGCCAAGUCCUAAGUCAACAGAUCUUCUGUUGAUAUGGAUGCAGUUCACAGACUAAAUGUCGGUCGGGGAAGAUGUAUUCUUCUCAUAAGAUAUAGUCGGACCUCUCCUUAAUGGGAGCUAGCGGAUGAAGUGAUGCAACACUGGAGCCGCUGGGAACUAAUUUGUAUGCGAAAGUAUAUUGAUUAGUUUUGGAGUACUCGUGGUCG
Method in brief: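 Pooled colonies went to amplicon sequencing on an Illumina HiSeq 2500 after six replicate transformations. The plates were LB agar with 100 μg/mL carbenicillin, 50 μM IPTG and 0.2% rhamnose, with or without 25 μg/mL kanamycin, incubated overnight at 37°C or 30°C. The E. coli BL21(DE3) library had all eight P1ex-region intron nucleotides randomised, the intron placed in the knt kanamycin-resistance gene on pET-22b(+). DiMSum fitness is the error-weighted combination of replicate fold changes, kanamycin against none, normalised to wild type.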

Row | Sequence | self-splicing fitness (ln) (30 °C) | self-splicing fitness (ln) (37 °C)
1 | AGGAAGCAAUAUUACGGCCA | -0.118 ± 0.14 | 0.223 ± 0.19
2 | AGGAAGCAAUAUUACGGCGC | -0.231 ± 0.11 | -0.104 ± 0.15
3 | AGGAAGCAAUAUUACGGGGG |  | -1.89 ± 0.36
4 | AGGAAGCAAUAUUACGGUGU | -3.33 ± 0.16 | -1.48 ± 0.1
5 | AGGAAGCAAUAUUACGUACG | -1.15 ± 0.11 | -0.064 ± 0.1
6 | AGGAAGCAAUAUUACGUAGG | -3 ± 0.15 | -2.3 ± 0.23
7 | AGGAAGCAAUAUUACGUUGA |  | -1.63 ± 0.46
8 | AGGAAGCAAUAUUACGUUUU | -4.64 ± 0.31 | -1.82 ± 0.23
9 | AGGCAGCAAUAUUACGAAAU | -1.8 ± 0.13 | -1.34 ± 0.15
10 | AGGCAGCAAUAUUACGAACG | -1.11 ± 0.14 | 0.48 ± 0.16
11 | AGGCAGCAAUAUUACGACCA | -0.404 ± 0.11 | 0.544 ± 0.17
12 | AGGCAGCAAUAUUACGACGC | -0.638 ± 0.12 | -0.663 ± 0.14
13 | AGGCAGCAAUAUUACGACUC | -1.65 ± 0.14 | -1.01 ± 0.19
14 | AGGCAGCAAUAUUACGAGAG | -3.49 ± 0.15 | -2.79 ± 0.15
15 | AGGCAGCAAUAUUACGCACU | -1.3 ± 0.11 | -0.863 ± 0.17
16 | AGGCAGCAAUAUUACGCCUU |  | -3.04 ± 0.27
17 | AGGCAGCAAUAUUACGCGCA | -0.635 ± 0.07 | -0.0389 ± 0.098
18 | AGGCAGCAAUAUUACGCGGG | -2.65 ± 0.14 | -2.55 ± 0.17
19 | AGGCAGCAAUAUUACGCGUA | -0.695 ± 0.09 | -0.127 ± 0.095
20 | AGGCAGCAAUAUUACGCUAA | -1.05 ± 0.097 | -0.682 ± 0.11
21 | AGGCAGCAAUAUUACGCUGA | -2.21 ± 0.13 | -1.84 ± 0.21
22 | AGGCAGCAAUAUUACGGCCA | -1.07 ± 0.15 | -0.0424 ± 0.21

Row | Sequence | self-splicing fitness (ln) (30 °C) | self-splicing fitness (ln) (37 °C)
23 | AGGCAGCAAUAUUACGGGCA | -1.39 ± 0.2 | -0.422 ± 0.17
24 | AGGCAGCAAUAUUACGUGCC | -2.9 ± 0.26 | -2.73 ± 0.31
25 | AGGCAGCAAUAUUACGUGGG | -2.95 ± 0.095 | -2.97 ± 0.15
26 | AGGCAGCAAUAUUACGUUAC | -3.46 ± 0.2 | -2.55 ± 0.31
27 | AGGCAGCAAUAUUACGUUGA | -2.42 ± 0.11 | -1.25 ± 0.1
28 | AGGCAGCAAUAUUACGUUUU | -1.59 ± 0.065 | -0.435 ± 0.079
29 | AGGGAGCAAUAUUACGAACG | -2.58 ± 0.39 | -1.9 ± 0.36
30 | AGGGAGCAAUAUUACGAAGG | -2.19 ± 0.31 | 
31 | AGGGAGCAAUAUUACGAGAU | -2.75 ± 0.29 | -3.06 ± 0.48
32 | AGGGAGCAAUAUUACGAGGC | -2.51 ± 0.35 | -2.59 ± 0.44
33 | AGGGAGCAAUAUUACGCACU | -3.18 ± 0.4 | -0.0242 ± 0.24
34 | AGGGAGCAAUAUUACGCGCA | -1.71 ± 0.4 | -2.11 ± 0.34
35 | AGGGAGCAAUAUUACGCGGA | -2.2 ± 0.21 | -2.68 ± 0.3
36 | AGGGAGCAAUAUUACGCUGU | -2.11 ± 0.26 | -3.01 ± 0.47
37 | AGGGAGCAAUAUUACGGAAC | -3.01 ± 0.38 | -2.68 ± 0.41
38 | AGGGAGCAAUAUUACGGACC | -2.79 ± 0.36 | -1.37 ± 0.36
39 | AGGGAGCAAUAUUACGGAGA | -2.65 ± 0.4 | -2.69 ± 0.32
40 | AGGGAGCAAUAUUACGGCAA | -3.52 ± 0.48 | -1.8 ± 0.27
41 | AGGGAGCAAUAUUACGGCCU | -2.43 ± 0.22 | -1.41 ± 0.24
42 | AGGGAGCAAUAUUACGGCUA | -2.09 ± 0.21 | -2.17 ± 0.18
43 | AGGGAGCAAUAUUACGGGCA | -3.79 ± 0.43 | -1.46 ± 0.34
